Source: the supplement of paper PMC10126150
± gives the standard deviation of the averaged measurements.

System: ATP
Assay: switch fluorescence ratio, 500 uM ATP over buffer (Cy3 cluster intensity, sum of 5 cycles each) (fold (ratio)); higher = stronger signal-on switching upon ATP binding; sequences stand for … in TCGTCGGCAGCGTCAGATGTGTATAAGAGACAGTTTTTTTTTTTTTTTTTTTTTTTTT…TC
Settings: aptamer strand: ATP DNA aptamer (quencher-CACCTGGGGGAGTATTGCGGAGGAAGG + anchor), 100 nM annealed; ATP concentration: 500 uM
Outline: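 Cy3-labelled switching-strand clusters on a modified Illumina MiSeq flow-cell were annealed to 100 nM quencher-labelled ATP aptamer and imaged first in selection buffer, then after 15 min with 500 uM ATP at 22 °C. NaOH stripping and re-annealing separated each of five buffer/ATP cycles, and clusters outside 100-1000 RFU were excluded. The fluorescence ratio sums target-cycle Cy3 intensity over buffer-cycle Cy3 intensity per cluster and averages it per switch-domain sequence.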
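Also: ATP exposure 15 min at 22 °C before imaging.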

Row | Sequence | switch fluorescence ratio
1 | GAAGGGTGGG | 1 ± 0.022
2 | GAAGGTCGGC | 0.994 ± 0.036
3 | GAAGGTTAAC | 1.03 ± 0.1
4 | GAAGGTTATT | 0.9939 ± 0.0047
5 | GAAGTAAGTC | 1.104 ± 0.0051
6 | GAAGTAGGTC | 1.02 ± 0.041
7 | GAAGTATCGG | 0.979 ± 0.024
8 | GAAGTCTGTG | 1 ± 0.047
9 | GAAGTGAGGG | 0.995 ± 0.017
10 | GAAGTGATAT | 1.206 ± 0.0013
11 | GAAGTGCTTT | 0.995 ± 0.041
12 | GAAGTGTGGG | 0.962 ± 0.03
13 | GAAGTGTGTG | 1 ± 0.021
14 | GAAGTTACGG | 1.11 ± 0.015
15 | GAAGTTCCCA | 0.979 ± 0.011
16 | GAAGTTCGTG | 1.01 ± 0.055
17 | GAAGTTGGTG | 0.987 ± 0.026
18 | GAAGTTTCTA | 0.999 ± 0.0069
19 | GAAGTTTTTT | 1.002 ± 0.0036
20 | GAATAAGCAA | 1.56 ± 0.025
21 | GAATAATGGG | 1.01 ± 0.033
22 | GAATAATTGG | 0.996 ± 0.015

Row | Sequence | switch fluorescence ratio
23 | GAATAGTTTT | 1.01 ± 0.02
24 | GAATATGAGA | 0.9629 ± 0.0051
25 | GAATATTACC | 1.06 ± 0.014
26 | GAATCAAGCG | 0.986 ± 0.059
27 | GAATCAGCGG | 0.989 ± 0.018
28 | GAATCAGGGG | 1.11 ± 0.012
29 | GAATCAGTGG | 0.993 ± 0.05
30 | GAATCCGGGA | 1.05 ± 0.087
31 | GAATCGTTTC | 0.996 ± 0.053
32 | GAATGGCACG | 1.003 ± 0.008
33 | GAATGGCGG | 0.998 ± 0.041
34 | GAATGGGACA | 1.13 ± 0.26
35 | GAATGGGGA | 0.986 ± 0.021
36 | GAATGGGTCC | 1.01 ± 0.029
37 | GAATGGTTGT | 1.02 ± 0.023
38 | GAATGTAGGT | 0.993 ± 0.037
39 | GAATGTGACG | 1.02 ± 0.013
40 | GAATGTGATA | 0.984 ± 0.018
41 | GAATGTTATT | 1.001 ± 0.0065
42 | GAATGTTTGA | 0.984 ± 0.044
43 | GAATGTTTGG | 0.991 ± 0.011
44 | GAATTAAAGT | 0.9823 ± 0.0041

Row | Sequence | switch fluorescence ratio
45 | GAATTAGGTA | 0.962 ± 0.01
46 | GAATTATCAT | 0.968 ± 0.015
47 | GAATTGAAAA | 1.02 ± 0.026
48 | GAATTGCGGG | 1.02 ± 0.087
49 | GAATTTAAAA | 0.9747 ± 0.0071
50 | GAATTTAGCG | 1.01 ± 0.015
51 | GAATTTGCGC | 1.03 ± 0.084
52 | GAATTTTATG | 0.9549 ± 0.0062
53 | GAATTTTGCG | 0.999 ± 0.021
54 | GAATTTTTTG | 0.988 ± 0.012
55 | GACAACATTT | 0.9967 ± 0.004
56 | GACAATAAGT | 1.04 ± 0.012
57 | GACAATGGTG | 1.021 ± 0.0049
58 | GACAATGTAC | 4.02 ± 0.16
59 | GACACGGAAA | 1.23 ± 0.29
60 | GACAGAGGGA | 1.02 ± 0.031
61 | GACAGCCGGT | 1.01 ± 0.029
62 | GACAGGAATT | 1.029 ± 0.008
63 | GACAGGGATT | 1.1 ± 0.15
64 | GACAGGTGCG | 1.274 ± 0.012
65 | GACAGTAGTC | 1.001 ± 0.0049
66 | GACAGTCGGG | 1.01 ± 0.024

Row | Sequence | switch fluorescence ratio
67 | GACATAGGTT | 1.034 ± 0.008
68 | GACATAGTTT | 1.021 ± 0.01
69 | GACATCAGAG | 1.02 ± 0.053
70 | GACATGGACG | 1.088 ± 0.0062
71 | GACATGGGTT | 0.983 ± 0.015
72 | GACATTCCCT | 1.07 ± 0.016
73 | GACATTGGCT | 0.948 ± 0.03
74 | GACATTGTGT | 0.98604 ± 0.00074
75 | GACATTGTTA | 1.01 ± 0.063
76 | GACATTTGGA | 1.017 ± 0.0066
77 | GACATTTTTT | 0.978 ± 0.036
78 | GACCAAGGGT | 0.978 ± 0.012
79 | GACCACAT | 1.05 ± 0.004
80 | GACCACTTGA | 1.01 ± 0.014
81 | GACCATTGTT | 1.01 ± 0.013
82 | GACCCAAGGC | 1.194 ± 0.01
83 | GACCGATGGG | 1.01 ± 0.013
84 | GACCGATGTG | 1.01 ± 0.013
85 | GACCGCTGGT | 0.996 ± 0.039
